The record followed here is patent US20210363204A1.

Some targets named below: human Nav1.6 (human) (UniProt Q9UQD0); human Nav1.7 (human) (UniProt Q15858); human Nav1.5 (human) (UniProt Q14524).
Experiment in all cases: cell-based or functional assay

Regarding recombinant Protoxin-II (peptide), in the assay with human Nav1.6 (human), the IC50, QPatch electrophysiology assay stood at 6.2e-08 M and the ratio of IC50 for Nav1.6 to IC50 for Nav1.7, QPatch was 28 fold.

As to wild type Protoxin-II (peptide), the IC50, FLIPR Tetra membrane depolarization assay with human Nav1.7 (human) stood at 4 nM.

“recombinant Protoxin-II NV1D12 (peptide)” had a hNav1.5 QPatch IC50 in the assay with human Nav1.5 (human) of more than 1000 nM.
